Results from patent publication US6992063 (TRUSTEES OF PRINCETON UNIVERSITY, dated 2006).

T1: XIAP-BIR3 (residues 238-358), P98170
T1 chain: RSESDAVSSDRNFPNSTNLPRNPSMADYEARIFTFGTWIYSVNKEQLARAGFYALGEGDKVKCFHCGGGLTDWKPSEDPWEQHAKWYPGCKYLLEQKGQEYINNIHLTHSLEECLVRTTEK

T2: DIAP1-BIR2 (residues 201-325) (Drosophila, UniProt Q24306 201-325)
T2 construct: range 201-325; Expressed as a GST fusion; the GST moiety was removed by thrombin cleavage; also called BIR2 domain of DIAP1; DIAP-BIR2
T2 sequence (looked up): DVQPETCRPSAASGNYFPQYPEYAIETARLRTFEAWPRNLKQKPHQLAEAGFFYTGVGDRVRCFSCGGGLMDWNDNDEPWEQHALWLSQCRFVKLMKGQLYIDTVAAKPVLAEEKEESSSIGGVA

T3: DIAP1-BIR1 (residues 1-145) (Drosophila, UniProt Q24306 1-145)
T3 construct: range 1-145; Expressed as a GST fusion; the GST moiety was removed by thrombin cleavage; also called BIR1 domain of DIAP1
T3 sequence (looked up): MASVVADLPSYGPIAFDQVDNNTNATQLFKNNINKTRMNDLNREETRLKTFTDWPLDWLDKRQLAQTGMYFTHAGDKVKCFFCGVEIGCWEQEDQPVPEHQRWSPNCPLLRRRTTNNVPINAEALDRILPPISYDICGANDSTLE

T4: Smac (Phe33Asp, residues 1-162), monomeric mutant (human, UniProt Q9NR28 56-217, A selenomethionyl form (Met replaced by Se-Met) was used only for phasing. The native crystals hold the plain protein.)
T4 construct: Residues 1-162 and position 33 count on mature Smac, not on the precursor entry; Expressed in E. coli from pET-3d for crystallisation; a selenomethionyl form was used for phasing; also called mutant Smac protein; monomeric Smac protein
T4 sequence: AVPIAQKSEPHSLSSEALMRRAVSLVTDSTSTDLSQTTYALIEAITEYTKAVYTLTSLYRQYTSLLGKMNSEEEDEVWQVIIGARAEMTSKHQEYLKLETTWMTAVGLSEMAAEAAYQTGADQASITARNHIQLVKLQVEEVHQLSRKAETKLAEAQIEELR

B1: caspase-9 (protein)
chain: MDEADRRLLRRCRLRLVEELQVDQLWDALLSRELFRPHMIEDIQRAGSGSRRDQARQLIIDLETRGSQALPLFISCLEDTGQDMLASFLRTNRQAAKLSKPTLENLTPVVLRPEIRKPEVLRPETPRPVDIGSGGFGDVGALESLRGNADLAYILSMEPCGHCLIINNVNFCRESGLRTRTGSNIDCEKLRRRFSSLHFMVEVKGDLTAKKMVLALLELAQQDHGALDCCVVVILSHGCQASHLQFPGAVYGTDGCPVSVEKIVNIFNGTSCPSLGGKPKLFFIQACGGEQKDHGFEVASTSPEDESPGSNPEPDATPFQEGLRTFDQLDAISSLPTPSDIFVSYSTFPGFVSWRDPKSGSWYVETLDDIFEQWAHSEDLQSLLLRVANAVSVKGIYKQMPGCFNFLRKKLFFKTS
B2: XIAP-BIR3 (residues 238-358) (other, mammalian, UniProt P98170 238-358, looked up)
chain: T1 chain
notes: Overexpressed as a GST fusion (pGEX-2T) and purified as in Chai et al. 2000; also called BIR3 domain of XIAP; third BIR domain of XIAP

Key:
[1] = target: T1, XIAP-BIR3 (residues 238-358), P98170
[2] = target: T2, DIAP1-BIR2 (residues 201-325); test: gel filtration and mass spectroscopic analyses (data not shown)
Protocol: (§1) In vitro interaction assay. […] The mixture was fractionated by gel filtration chromatography (Superdex-200, Pharmacia). The protein-containing fractions were analyzed by reverse phase HPLC and mass spectroscopy for detection of the bound peptide.
Rationale and structure determination.

[3] = target: T3, DIAP1-BIR1 (residues 1-145); test: gel filtration of BIR domain with excess peptide, then reverse phase HPLC and mass spectroscopy
Protocol: as §1

[4] = target: B2; test: isothermal titration calorimetry
[5] = target: T4, Smac (Phe33Asp, residues 1-162), …; test: reconstituted binary complex, in solution and co-crystallised
[6] = target: T2, DIAP1-BIR2 (residues 201-325); test: isothermal titration calorimetry, 23 °C
Protocol: Isothermal microcalorimetry titration. All proteins and peptides was prepared in 50 mM sodium phosphate buffer, pH 7.5. The Micro Calorimetry System (Microcal, Amherst, Mass.) was used to perform the ITC measurements for the interaction between DIAP1-BIR2 and various synthetic peptides. The titration data, collected at 23° C., were analyzed using the ORIGIN data analysis software (Microcal Software, Northampton, Mass.).

Question: With B1 as the binder, how does the “caspase-9 activity (cleavage of Ac-LEHD-AFC), direct assay” value [1] read?
Answer: the inhibition of caspase-9 by the BIR3 domain of XIAP

Question: Does AIAYFIPDQA [10-residue Grim peptide (N-terminal peptide of Grim)] bind [2]?
Answer: binds

Question: Does AIAYFIPDQA [10-residue Grim peptide (N-terminal peptide of Grim)] bind [3]?
Answer: no binding

Question: Does AIAYFIPDQA [10-residue Grim peptide (N-terminal peptide of Grim)] bind [4]?
Answer: binds

Question: Does B2 bind [5]?
Answer: binds

Question: Which results are given for AVPFYLPEGG [10-residue Hid peptide (N-terminal peptide of Hid)]?
Answer: binding result [3]: no binding; fold higher binding affinity than the Grim peptide [6]: 6 fold; fold difference in binding affinity between the Hid and Grim peptides [4]: ~100 fold
